One block for each binder: values may come before it.
How the values were obtained:
[1] = target: T1, Human LIGHT-214E, full length, expressed on cells (human, UniProt O43557 1-240); assay: flow cytometry, HEK293FF human LIGHT cells
T1 construct: also called membrane LIGHT

[2] = target: T2, Human LIGHT stably expressed on EL4 cells (EL4-LIGHT) (human, UniProt O43557 1-240); assay: flow cytometry competition on EL4-LIGHT cells, co-incubation 40 min 4 C; blocked ligand DcR3-Fc-AF647 0.8 ug/ml; same IC50 as 0.031ug/ml, second unit printed
T2 construct: whole, on cells; also called membrane LIGHT
Protocol: (§1) EL4-LIGHT cells were co-incubated with Alexa Fluor 647 conjugated DcR3-Fc (DcR3-Fc-AF647; 0.8 μg/ml) and graded concentrations (31 μg/ml to 128 μg/ml) of anti-membrane LIGHT antibodies (3B04, 03D12 and 02B111) for 40 min at 4° C. A control, of a mAb that binds both soluble and membrane LIGHT was included (F19 from EP2292663). The samples were washed three times and flow cytometry analysis was performed. Specific mean fluorescence intensity (MFI) obtained from the binding of DcR3-Fc-AF647 to LIGHT on EL4 cells were used to determine the levels of competition binding.

[3] = target: LIGHT without residues 81-84, stably expressed on EL4 cells (EL4-NC-LIGHT); assay: cell-based or functional assay
[4] = target: T2, Human LIGHT stably expressed on EL4 …; assay: flow cytometry competition on EL4-LIGHT cells, co-incubation 40 min 4 C; blocked ligand DcR3-Fc-AF647 0.8 ug/ml; displacement is partial
Protocol: as §1

[5] = target: T3, Human LIGHT-32L, on II23 cells (human, UniProt O43557 1-240); assay: flow cytometry on II23-LIGHT 32L cells, 4 ug mAb in 100 uL, goat anti-human Fc gamma-PE; signal as % of the commercial anti-LIGHT-PE
T3 construct: also called II23-LIGHT 32L
T3 chain: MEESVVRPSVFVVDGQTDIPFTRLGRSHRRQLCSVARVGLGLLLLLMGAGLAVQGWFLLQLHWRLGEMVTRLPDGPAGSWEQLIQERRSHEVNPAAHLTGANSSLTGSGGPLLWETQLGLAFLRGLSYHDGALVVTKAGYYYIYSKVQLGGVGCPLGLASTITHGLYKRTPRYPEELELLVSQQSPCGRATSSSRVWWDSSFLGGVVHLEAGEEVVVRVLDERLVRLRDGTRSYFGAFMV
Protocol: The cells were suspended at 1×10⁷ cells/ml and 100 uL aliquots were placed into wells of a 96-well plate, the cells spun down and washed in FACS buffer at 1800 rpm for 2 min. The cells were blocked with 1:100 dilution of anti-CD16/CD32 (eBioscience, San Diego, USA) in FACS buffer for 20 min at room temperature and then washed 1× in FACS buffer at 1800 rpm for 2 min. The cells were then resuspended in 100 uL FACS buffer+4 ug anti-membrane LIGHT mAbs or anti-LIGHT-PE (eBioscience, lot: E01621-1632) for 30 min in the dark at room temperature, followed by washing 1× in FACS buffer at 1800 rpm for 2 min and then resuspended in 100 uL FACS buffer plus 1:100 goat anti-human Fcγ-PE secondary antibody or no secondary antibody at 4° C. in the dark for 30 min. The cells were again washed 1× in FACS buffer at 1800 rpm for 2 min and fixed in 200 uL 2% paraformaldehyde overnight at 4° C. and read on a flow cytometer.

[6] = target: Full length LIGHT G188A on HEK293FF cells (Homo sapiens (Human), UniProt O43557 1-240); assay: flow cytometry, HEK293FF, mAb at EC50
Protocol: (§2) The day of transfection the cells were seeded in a 24-well plate at 0.6×10⁶ cells/well. Lipofectamine 2000 (ThermoFisher scientific), 3 ul, was mixed with 50 μl OptiMEM medium (GIBCO) and then added to 50 μl Opti-MEM medium containing 3 ug plasmid DNA and incubated for 20 min at RT to form DNA-Lipofectamine 2000 complexes which were then added to the HEK293FF cells and incubated at 37° C., 5% CO₂ for 24 hours. For each construct, in duplicate, 0.60×10⁶ cells/well were used in a 96 well round bottom plate. Cells were centrifuged for 3 minutes at 300×g at 4° C., the supernatant discarded and the cells washed with 150 μl FACS buffer (0.5% FBS in phosphate buffered saline). This process was repeated 3 times. […] The wells were washed 3 times as above and 50 μl/well of goat anti-human IgG FITC (1:1500 dilution in FACS buffer, SIGMA F9512-2ML) or goat anti-mouse APC (1/500 dilution in FACS buffer, BDBioscience 550826), as appropriate, was added to the wells and incubated for 30 min at 4° C. protected from the light, with shaking. The cells were then washed as above, resuspended in 100 μl of FACS buffer and binding of the antibodies to the constructs was measured using flow cytometry and a total of 10,000 cells were acquired for each sample. Controls of buffer and secondary antibody only as well as HEK293FF non transfected cells were also used.

[7] = target: Full length LIGHT A190S on HEK293FF cells (Homo sapiens (Human), UniProt O43557 1-240); assay: flow cytometry, HEK293FF, mAb at EC50
Protocol: as §2

[8] = target: Full length LIGHT S193A on HEK293FF cells (Homo sapiens (Human), UniProt O43557 1-240); assay: flow cytometry, HEK293FF, mAb at EC50
Protocol: as §2

[9] = target: Full length LIGHT R189A on HEK293FF cells (Homo sapiens (Human), UniProt O43557 1-240); assay: flow cytometry, HEK293FF, mAb at EC50
Protocol: as §2

[10] = target: Full length LIGHT R195A on HEK293FF cells (Homo sapiens (Human), UniProt O43557 1-240); assay: flow cytometry, HEK293FF, mAb at EC50
Protocol: as §2

[11] = target: Full length LIGHT W198A on HEK293FF cells (Homo sapiens (Human), UniProt O43557 1-240); assay: flow cytometry, HEK293FF, mAb at EC50
Protocol: as §2

[12] = target: Full length LIGHT S192A on HEK293FF cells (Homo sapiens (Human), UniProt O43557 1-240); assay: flow cytometry, HEK293FF, mAb at EC50
Protocol: as §2

[13] = target: Full length LIGHT S194A on HEK293FF cells (Homo sapiens (Human), UniProt O43557 1-240); assay: flow cytometry, HEK293FF, mAb at EC50
Protocol: as §2

[14] = target: Full length LIGHT T191A on HEK293FF cells (Homo sapiens (Human), UniProt O43557 1-240); assay: flow cytometry, HEK293FF, mAb at EC50
Protocol: as §2

[15] = target: Full length LIGHT W197A on HEK293FF cells (Homo sapiens (Human), UniProt O43557 1-240); assay: flow cytometry, HEK293FF, mAb at EC50
Protocol: as §2

[16] = target: Full length LIGHT V196A on HEK293FF cells (Homo sapiens (Human), UniProt O43557 1-240); assay: flow cytometry, HEK293FF, mAb at EC50
Protocol: as §2

[17] = target: T2, Human LIGHT stably expressed on EL4 …; assay: flow cytometry, against F19 and F23
[18] = target: T2, Human LIGHT stably expressed on EL4 …; assay: flow cytometry, EL4-LIGHT cells
Protocol: The EC50 of the 7 mAbs were calculated from binding to EL4-LIGHT cells (FIG. 1). […] Non-linear regression analysis was performed to determine the functional binding affinity measurement or EC50 for each mAb. A range of functional affinities was observed.

Sequence of Full length LIGHT A190S on HEK293FF cells (O43557 whole entry A190S): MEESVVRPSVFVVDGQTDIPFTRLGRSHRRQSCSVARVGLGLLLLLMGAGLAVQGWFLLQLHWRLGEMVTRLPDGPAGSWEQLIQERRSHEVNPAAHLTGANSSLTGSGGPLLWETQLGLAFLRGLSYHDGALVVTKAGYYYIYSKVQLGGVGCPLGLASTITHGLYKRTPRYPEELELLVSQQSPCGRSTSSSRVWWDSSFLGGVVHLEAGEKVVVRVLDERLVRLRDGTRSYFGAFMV
Sequence of Full length LIGHT G188A on HEK293FF cells (O43557 whole entry G188A): as the sequence (O43557 whole entry A190S) above, with G188A, S190A counted along it
Sequence of Full length LIGHT R195A on HEK293FF cells (O43557 whole entry R195A): as the sequence (O43557 whole entry A190S) above, with S190A, R195A counted along it
T2 sequence (O43557 whole entry): as the sequence (O43557 whole entry A190S) above, with S190A counted along it
Sequence of Full length LIGHT W197A on HEK293FF cells (O43557 whole entry W197A): as the sequence (O43557 whole entry A190S) above, with S190A, W197A counted along it
Sequence of Full length LIGHT S194A on HEK293FF cells (O43557 whole entry S194A): as the sequence (O43557 whole entry A190S) above, with S190A, S194A counted along it
Sequence of Full length LIGHT S193A on HEK293FF cells (O43557 whole entry S193A): as the sequence (O43557 whole entry A190S) above, with S190A, S193A counted along it
Sequence of Full length LIGHT R189A on HEK293FF cells (O43557 whole entry R189A): as the sequence (O43557 whole entry A190S) above, with R189A, S190A counted along it
Sequence of Full length LIGHT W198A on HEK293FF cells (O43557 whole entry W198A): as the sequence (O43557 whole entry A190S) above, with S190A, W198A counted along it
Sequence of Full length LIGHT S192A on HEK293FF cells (O43557 whole entry S192A): as the sequence (O43557 whole entry A190S) above, with S190A, S192A counted along it
Sequence of Full length LIGHT T191A on HEK293FF cells (O43557 whole entry T191A): as the sequence (O43557 whole entry A190S) above, with S190A, T191A counted along it
Sequence of Full length LIGHT V196A on HEK293FF cells (O43557 whole entry V196A): as the sequence (O43557 whole entry A190S) above, with S190A, V196A counted along it

EC50 [1]: 45 nM
B1: HVEM-Fc (R&D Systems) (Fc fusion, UniProt Q92956 37-202, looked up)
chain: PALPSCKEDEYPVGSECCPKCSPGYRVKEACGELTGTVCEPCPPGTYIAHLNGLSKCLQCQMCDPAMGLRASRNCSRTENAVCGCSPGHFCIVQDGDHCAACRAYATSSPGQRVQKGGTESQDTLCQNCPPGTFSPNGTLEECQHQTKCSWLVTKAGAGTSSSHWV
notes: unlabelled in the Fab screen; also called biotin-HVEM-Fc; not shown: Fc part of the bought fusion; not described

EC50 [1]: 15 nM
B2: LTβR-Fc (R&D Systems) (Fc fusion, UniProt P36941 28-227, looked up)
chain: SQPQAVPPYASENQTCRDQEKEYYEPQHRICCSRCPPGTYVSAKCSRIRDTVCATCAENSYNEHWNYLTICQLCRPCDPVMGLEEIAPCTSKRKTQCRCQPGMFCAAWALECTHCELLSDCPPGTEAELKDEVGKGNNHCVPCKAGHFQNTSSPSARCQPHTRCENQGLVEAAPGTAQSDTTCKNPLEPLPPEMSGTMLM
notes: also called LTBR-Fc; biotin-LTβR-Fc; not shown: Fc part of the bought fusion; not described

IC50 [2]: 0.214 nM | IC50, inhibition of IL-8 secretion, HT-29 + EL4-NC-LIGHT cells [3]: 0.6 nM | IC50 [4]: 0.031 µg/mL | binding result [5]: binds | % of WT binding [6]: 3% | % of WT binding [7]: 52% | % of WT binding [8]: 0% | % of WT binding [9]: 0% | % of WT binding [10]: 78% | % of WT binding [11]: 77% | % of WT binding [12]: 96% | % of WT binding [13]: 0% | % of WT binding [14]: 1% | % of WT binding [15]: 0% | % of WT binding [16]: 73% | binding ratio, mAb to LIGHT trimer [17]: 1 mAb per LIGHT trimer | EC50 [18]: 0.083 nM
B3: 2B11 chimeric IgG4 mAb (antibody, V domains shown)
VH: EVQLVESGAELVRPGVSVKISCKGSGYTFTDYAIHWVKQSHAKSLEWIGVISTYYGDASYNQKFKGKATMTVDKSSSTAYMELARLTSEDSAIYYCARSRGEYGNYDAMDYWGQGTSVTVSS
VL: DIVLTQSPASLAVSLGQRATISCRASESVDSYGNSFMHWYQQKPGQPPKLLIYRASNLESGIPARFSGSGSRTDFTLTINPVEADDVATYYCQQSNEDPYTFGGGTKLEIK
notes: Chimeric human IgG4 (S-to-P, L-to-E) with human CL, as m1; Often misprinted 2B111; also called Parental 2B11; 2B111
